According to publication PMC12416549 (2024):
Numbering of substitutions follows the chain as printed. Numbers in names are those of the source.

B1: E89R (designed binder)
chain: SMEEEVEKAAKEYEKKKKEAIEKHLEKLKAKDKEAAERFLKELEEAAKEYAKDEAKTMSEEEAKRRAKKYKEKVLLSELSEEEQKEIKRAEEKLVRTILKYVEEAAK
B2: A20W (designed binder)
chain: B1 chain with A20W, R89E
B3: K71W (designed binder)
chain: B1 chain with K71W, R89E
B4: K64R (designed binder)
chain: B1 chain with K64R, R89E
B5: L25S (designed binder)
chain: B1 chain with L25S, R89E
B6: E42L (designed binder)
chain: B1 chain with E42L, R89E
B7: K68Y (designed binder)
chain: B1 chain with K68Y, R89E
B8: K93Y (designed binder)
chain: B1 chain with R89E, K93Y
B9: A9Y (designed binder)
chain: B1 chain with A9Y, R89E
B10: E83F (designed binder)
chain: B1 chain with E83F, R89E
B11: K71M (designed binder)
chain: B1 chain with K71M, R89E
B12: M58Y (designed binder)
chain: B1 chain with M58Y, R89E
B13: R65F (designed binder)
chain: B1 chain with R65F, R89E
B14: E45A (designed binder)
chain: B1 chain with E45A, R89E
B15: E49V (designed binder)
chain: B1 chain with E49V, R89E
B16: F39M (designed binder)
chain: B1 chain with F39M, R89E
B17: K31Q (designed binder)
chain: B1 chain with K31Q, R89E
B18: K64Q (designed binder)
chain: B1 chain with K64Q, R89E
B19: Y50M (designed binder)
chain: B1 chain with Y50M, R89E
B20: E92T (designed binder)
chain: B1 chain with R89E, E92T
B21: K33C (designed binder)
chain: B1 chain with K33C, R89E
B22: K64H (designed binder)
chain: B1 chain with K64H, R89E
B23: S59V (designed binder)
chain: B1 chain with S59V, R89E
B24: Q84V (designed binder)
chain: B1 chain with Q84V, R89E
B25: A35D (designed binder)
chain: B1 chain with A35D, R89E
B26: E61V (designed binder)
chain: B1 chain with E61V, R89E
B27: E12M (designed binder)
chain: B1 chain with E12M, R89E
B28: S59D (designed binder)
chain: B1 chain with S59D, R89E
B29: K107A (designed binder)
chain: B1 chain with R89E, K107A
B30: E34P (designed binder)
chain: B1 chain with E34P, R89E
B31: A46N (designed binder)
chain: B1 chain with A46N, R89E
B32: K48Y (designed binder)
chain: B1 chain with K48Y, R89E
B33: I21N (designed binder)
chain: B1 chain with I21N, R89E
B34: S1K (designed binder)
chain: B1 chain with S1K, R89E
B35: E78Q (designed binder)
chain: B1 chain with E78Q, R89E
B36: A63K (designed binder)
chain: B1 chain with A63K, R89E
B37: V95I (designed binder)
chain: B1 chain with R89E, V95I
B38: D53P (designed binder)
chain: B1 chain with D53P, R89E
B39: K18S (designed binder)
chain: B1 chain with K18S, R89E
B40: R96I (designed binder)
chain: B1 chain with R89E, R96I
B41: L94R (designed binder)
chain: B1 chain with R89E, L94R
B42: K48I (designed binder)
chain: B1 chain with K48I, R89E
B43: A10S (designed binder)
chain: B1 chain with A10S, R89E

Molecular target: T1, TNFR1 (Homo sapiens, UniProt P19438)
T1 chain: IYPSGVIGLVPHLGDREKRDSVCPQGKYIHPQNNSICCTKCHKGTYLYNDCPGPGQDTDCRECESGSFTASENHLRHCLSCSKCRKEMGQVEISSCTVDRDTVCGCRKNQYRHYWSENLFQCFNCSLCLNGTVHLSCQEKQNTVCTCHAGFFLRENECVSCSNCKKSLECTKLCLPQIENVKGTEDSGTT
Experiment: yeast display SC50

| Binder | apparent Kd (screen) |
| --- | --- |
| B1 | 2.73 nM |
| B2 | 2.25 nM |
| B3 | 4.39 nM |
| B4 | 0.869 nM |
| B5 | 1.05 nM |
| B6 | 7.07 nM |
| B7 | 3.99 nM |
| B8 | 2.25 nM |
| B9 | 0.718 nM |
| B10 | 2.05 nM |
| B11 | 3 nM |
| B12 | 24.4 nM |
| B13 | 7.07 nM |
| B14 | 2.05 nM |
| B15 | 10.4 nM |
| B16 | 3 nM |
| B17 | 1.16 nM |
| B18 | 0.446 nM |
| B19 | 0.446 nM |
| B20 | 3.3 nM |
| B21 | 0.653 nM |
| B22 | 0.593 nM |

| Binder | apparent Kd (screen) |
| --- | --- |
| B23 | 1.54 nM |
| B24 | 3 nM |
| B25 | 2.25 nM |
| B26 | 1.16 nM |
| B27 | 0.539 nM |
| B28 | 2.25 nM |
| B29 | 1.54 nM |
| B30 | 0.653 nM |
| B31 | 1.69 nM |
| B32 | 0.653 nM |
| B33 | 1.69 nM |
| B34 | 0.446 nM |
| B35 | 0.718 nM |
| B36 | 8.56 nM |
| B37 | 1.69 nM |
| B38 | 0.869 nM |
| B39 | 0.446 nM |
| B40 | 0.718 nM |
| B41 | 4.83 nM |
| B42 | 0.49 nM |
| B43 | 0.446 nM |
